# Reference: patent US20210268070A1, “Use of Immunomodulators to Control Infection and Stimulate Healing in Normal and Diabetic Wounds” (priority 2018, published 2021)
# B1: Chemokine (C-C motif) ligand 3 (protein, listed as Homo sapiens)
# chain: MQVSTAALAVLLCTMALCNQFSASLAADTPTACCFSYTSRQIPQNFIADYFETSSQCSKPGVIFLTKRSRQVCADPSEEWVQKYVSDLELSA
# notes: class 1 immunomodulator
# Experiments:
# S. aureus = S. aureus surgical site infection, implant model; format: in vivo; conditions: S. aureus 10^6 CFU, titers after 1 day, compared to PBS, FIGS. 5A and 5B
# Excerpt: FIGS. 5A and 5B illustrate that PAMPs are effective in controlling S. aureus surgical site infection as prophylactic antibiotic standard therapy. S. aureus (10^6 CFU). S. aureus titers after 1 day. Significance determined as compared to PBS *<0.05, **p<0.01, ***p<0.001, ****p<0.0001.
# We next examined the impact of CCL3 topical treatment on leukocyte migration by H&E staining, and on leukocyte activation by myeloperoxidase (MPO) measurements by ELISA. (MPO is primarily used as a marker for neutrophil activation but it can also be expressed to lesser extent in macrophages).
# (§1) Implant surgery and wound surgery and surgical site infection are performed according to the following method. On the day of surgery, all mice are anesthetized by an intraperitoneal injection of a ketamine/xylazine mixture (90 mg/kg ketamine+5 mg/kg xylazine for mice). The back of the animals is shaved using an electric shave and scrubbed with alcohol swabs 3 times, a topical antiseptic solution (Hibiclens; chlorhexidine gluconate) is applied to the skin. The surgical procedures are performed with sterile instruments, sterile surgical gloves, and aseptic techniques as follows. For wound surgical procedure, a sterile biopsy punch (5-7 mm diameter) is used to punch through the full thickness of the back skin below the shoulder blades. Four 5-7 mm skin wounds are made on the back of each mouse. […]
# diabetic wounds = experiment: Collagen deposition and wound healing in infected diabetic wounds; format: in vivo, db/db mice; conditions: P. aeruginosa PA103 10^3 infected, compared to PBS
# Excerpt: FIGS. 11A-11C illustrate that CCL3 increases infection control (11A), collagen deposition (11B) and enhances wound healing (11C) in diabetic wounds. P. aeruginosa PA103 10^3N=4; Significance determined as compared to PBS *<0.05, **p<0.01, ***p<0.001.
# (§2) As discussed above immunomodulatory therapies enhance infection control in both normal and diabetic models. FIGS. 11A-11C illustrate that CCL3 increases infection control (11A) increases collagen deposition (11B) and enhances wound healing (11C) in diabetic wounds. Immunomodulators may also be used to enhance wound healing in uninfected diabetic wounds.
# as §1
# [1] = system: diabetic uninfected wounds; experiment: Wound healing in diabetic uninfected wounds; format: in vivo, db/db mice; conditions: FIG. 14
# Excerpt: FIG. 14 illustrates CCL3 enhances wound healing in diabetic uninfected wounds.
# as §2
# as §1, with “mouse. Wounds placed in this area cannot be reached by the animals and therefore are protected from self-licking.” for “mouse.”
molecule,measurement,setting,value
"CSCC[C@H](NC=O)C(=O)N[C@@H](CC(C)C)C(=O)N[C@@H](Cc1ccccc1)C(=O)O [fMLP, N-Formylmethionyl-leucyl-phenylalanine]",infection control in the implant model against S. aureus,S. aureus,improved
lipopolysaccharide [LPS],infection control in the implant model against S. aureus,S. aureus,improved
B1,collagen deposition in diabetic wounds,diabetic wounds; FIG. 11B,increases
same,wound healing in diabetic wounds,diabetic wounds; FIG. 11C,enhances
same,wound healing in diabetic uninfected wounds,[1],enhances
